Like-named read-outs stand apart in the source and are kept apart here. Where no end group is shown, it is not given here.
Columns and labels:
[1] = target: ClfA_(229–545) (clumping factor A, N2N3 domains) (Staphylococcus aureus strain Newman) (UniProt Q53653); assay: ITC
ClfA229–545 [2] = target: T1, ClfA229–545 (Staphylococcus aureus, UniProt Q53653); assay: Isothermal titration calorimetry of ClfA229–545 with soluble Fg peptides; design: a smaller ClfA construct (229–545) predicted to be composed only of the N2 N3 domains; His tag (pQE-30 vector) (N); made in house; host or cells: Escherichia coli XL-1 Blue; details: ITC, 30 µM ClfA in cell, 500–600 µM peptide in syringe, HBS pH 7.4, 30°C, single binding site model; read-out: Kd of peptide binding to ClfA229–545 in solution (ITC)
T1 sequence (Q53653 229-545): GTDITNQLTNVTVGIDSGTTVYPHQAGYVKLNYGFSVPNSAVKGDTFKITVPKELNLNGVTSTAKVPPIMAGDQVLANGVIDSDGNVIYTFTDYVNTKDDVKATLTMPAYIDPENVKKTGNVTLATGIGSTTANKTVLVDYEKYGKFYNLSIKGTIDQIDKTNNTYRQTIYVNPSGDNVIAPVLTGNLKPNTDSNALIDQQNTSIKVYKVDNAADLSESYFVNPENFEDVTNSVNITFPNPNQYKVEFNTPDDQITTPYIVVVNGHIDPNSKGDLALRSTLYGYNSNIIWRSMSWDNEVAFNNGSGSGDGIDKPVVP
Method: The interaction between ClfA proteins and soluble Fg peptides was analyzed by Isothermal titration calorimetry (ITC) using a VP-ITC microcalorimeter (MicroCal). The cell contained 30 µM ClfA and the syringe contained 500–600 µM peptide in HBS buffer (10 mM HEPES, 150 mM NaCl, pH 7.4). All samples were degassed for 5 min. The titration was performed at 30°C using a preliminary injection of 5 µl followed by 30 injections of 10 µl with an injection speed of 0.5 µl/sec. The stirring speed was 300 rpm. Data were fitted to a single binding site model and analyzed using Origin version 5 (MicroCal) software.

ClfA229–545 [3] = target: T1, ClfA229–545; assay: Solid-phase inhibition assay: Fg γ peptides inhibit ClfA binding to immobilized GST-Fg γ^1–17; design: a smaller ClfA construct (229–545) predicted to be composed only of the N2 N3 domains; His tag (pQE-30 vector) (N); made in house; host or cells: Escherichia coli XL-1 Blue; details: read-out: inhibition of ClfA binding to immobilized GST-Fg γ^1–17
Method: To identify specific residues in Fg that are important for binding to ClfA229–545, a panel of peptides (Fig. 1A) based on the Fg γ-chain sequence 395–411 (referred to as γ^1–17) were synthesized in which each position was sequentially substituted with an alanine residue (alanines 11 and 14 were changed to serines). These peptides were tested as inhibitors in solid-phase binding assays, using a peptide concentration giving about 50% inhibition by the wild-type peptide.
(§1) ClfA229–545 (100 nM) was pre-incubated with wild-type Fg γ^1–17 peptide (WT γ^1–17) or the P1 (G1A) to P17 (V17A) mutant peptide (50 µM) for 1 hr.
Immulon 4HBX Microtiter plates (Thermo) were coated with human Fg (1 µg/well) in HBS (10 mM HEPES, 100 mM NaCl, 3 mM EDTA, pH 7.4) over-night at 4°C. The wells were washed with HBS containing 0.05% (w/v) Tween-20 (HBST) and blocked with 5% (w/v) BSA in HBS for 1 h at 25°C. […] After incubation, the plates were washed 3 times with HBST. Anti-His antibodies (GE Healthcare) were added (1∶3000 in HBS) and the plates were incubated at 25°C for 1 h. […] The wells were washed 3 times with HBST and AP-conjugated polyclonal antibodies were detected by addition of p-nitrophenyl phosphate (Sigma) in 1 M diethanolamine (0.5 mM MgCl2, pH 9.8) and incubated at 25°C for 30–60 min. The plates were read at 405 nm in a ELISA plate reader (Thermomax, Molecular Devices). […]

ClfA229–545 [4] = target: T1, ClfA229–545; details: read-out: Kd of ClfA229–545 binding to immobilized GST fusion protein; solid-phase assay, 1 µg GST fusion per well, increasing rClfA229–545, anti-His detection (Fig. 1C)
Method: as §1
Immulon 4HBX Microtiter plates (Thermo) were coated with human Fg (1 µg/well) in HBS (10 mM HEPES, 100 mM NaCl, 3 mM EDTA, pH 7.4) over-night at 4°C. The wells were washed with HBS containing 0.05% (w/v) Tween-20 (HBST) and blocked with 5% (w/v) BSA in HBS for 1 h at 25°C. […] After incubation, the plates were washed 3 times with HBST. Anti-His antibodies (GE Healthcare) were added (1∶3000 in HBS) and the plates were incubated at 25°C for 1 h. The wells were subsequently washed 3 times with HBST and incubated with goat anti-mouse-AP secondary antibodies (diluted 1∶3000 in HBS; Bio-Rad) at 25°C for 1 h. The wells were washed 3 times with HBST and AP-conjugated polyclonal antibodies were detected by addition of p-nitrophenyl phosphate (Sigma) in 1 M diethanolamine (0.5 mM MgCl2, pH 9.8) and incubated at 25°C for 30–60 min. The plates were read at 405 nm in a ELISA plate reader (Thermomax, Molecular Devices). For the inhibition assays, recombinant ClfA229–545 was pre-incubated with Fg γ peptides in HBS for 1 h at 37°C.

[5] = target: GST-Fg γ^1–17 (residues 395–411 of the Fg γ-chain fused to a GST protein) (human) (UniProt P02679); assay: ELISA; human Fg or GST fusion protein coated (1 µg/well); His-tagged ClfA added in increasing concentrations in HBS (10 mM HEPES, 100 mM NaCl, 3 mM EDTA, pH 7.4), 25°C, 1 h; bound ClfA detected with anti-His antibodies; apparent Kd
[6] = target: GST-Fg γ^1–17 (residues 395–411 of the Fg γ-chain fused to a GST protein) (human) (UniProt P02679); assay: as above; remark: listed apart in the source
[7] = target: human fibrinogen (Fg), full length (human) (UniProt P02671); assay: as above
Chain of human fibrinogen (Fg), full length (human) (P02671 other isoform, or with tags, fused parts or gaps, chain 1 of 3): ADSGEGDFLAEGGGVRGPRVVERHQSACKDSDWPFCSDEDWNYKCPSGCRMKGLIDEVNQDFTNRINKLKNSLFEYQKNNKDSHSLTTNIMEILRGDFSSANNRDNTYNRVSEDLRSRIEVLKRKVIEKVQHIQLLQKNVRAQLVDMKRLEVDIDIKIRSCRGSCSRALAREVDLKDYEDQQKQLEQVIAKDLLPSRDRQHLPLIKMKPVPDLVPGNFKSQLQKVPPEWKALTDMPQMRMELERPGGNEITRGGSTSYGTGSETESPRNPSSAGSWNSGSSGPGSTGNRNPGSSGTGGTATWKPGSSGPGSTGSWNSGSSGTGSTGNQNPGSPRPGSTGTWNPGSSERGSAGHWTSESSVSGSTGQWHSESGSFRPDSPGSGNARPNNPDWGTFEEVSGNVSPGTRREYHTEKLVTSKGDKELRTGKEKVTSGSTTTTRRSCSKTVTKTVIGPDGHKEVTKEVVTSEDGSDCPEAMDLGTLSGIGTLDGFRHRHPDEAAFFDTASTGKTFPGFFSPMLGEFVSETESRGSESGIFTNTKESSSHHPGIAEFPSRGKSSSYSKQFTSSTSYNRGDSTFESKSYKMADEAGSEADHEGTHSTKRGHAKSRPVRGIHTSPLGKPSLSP
Chain of human fibrinogen (Fg), full length (human) (P02675 31-491, chain 2 of 3, further chain): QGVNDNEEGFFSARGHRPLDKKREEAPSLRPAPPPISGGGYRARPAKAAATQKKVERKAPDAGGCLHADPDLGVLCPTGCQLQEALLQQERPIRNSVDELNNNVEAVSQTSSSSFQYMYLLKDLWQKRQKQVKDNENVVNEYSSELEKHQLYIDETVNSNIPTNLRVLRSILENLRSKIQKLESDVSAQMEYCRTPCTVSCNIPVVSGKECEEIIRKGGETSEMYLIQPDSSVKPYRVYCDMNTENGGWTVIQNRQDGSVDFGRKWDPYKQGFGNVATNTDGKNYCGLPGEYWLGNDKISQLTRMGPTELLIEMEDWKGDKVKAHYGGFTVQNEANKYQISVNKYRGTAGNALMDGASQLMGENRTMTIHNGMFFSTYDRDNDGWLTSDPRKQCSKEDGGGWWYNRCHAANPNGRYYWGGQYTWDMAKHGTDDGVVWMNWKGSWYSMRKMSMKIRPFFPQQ
Chain of human fibrinogen (Fg), full length (human) (P02679 other isoform, or with tags, fused parts or gaps, chain 3 of 3, further chain): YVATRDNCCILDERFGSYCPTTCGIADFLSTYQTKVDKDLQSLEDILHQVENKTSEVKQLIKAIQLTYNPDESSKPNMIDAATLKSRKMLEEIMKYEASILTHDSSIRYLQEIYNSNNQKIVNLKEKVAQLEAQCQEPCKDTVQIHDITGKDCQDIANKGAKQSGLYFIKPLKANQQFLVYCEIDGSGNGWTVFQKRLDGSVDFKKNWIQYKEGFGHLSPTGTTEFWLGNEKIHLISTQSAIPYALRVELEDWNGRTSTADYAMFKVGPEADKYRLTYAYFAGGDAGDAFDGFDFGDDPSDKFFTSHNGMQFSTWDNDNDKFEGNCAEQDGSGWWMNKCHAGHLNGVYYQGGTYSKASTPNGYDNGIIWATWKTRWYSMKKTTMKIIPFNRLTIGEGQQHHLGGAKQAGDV

[8] = target: T2, ClfA_(229–545) (clumping factor A, N2N3 domains) (Staphylococcus aureus strain Newman, UniProt Q53653 229-545); assay: ITC
T2 chain: T1 sequence (Q53653 229-545)

Molecule: Fg γ^1–17 peptide, wild type (Fg γ-chain 395–411) (from UniProt P02679-2 421-437)
- Kd [1]: 5.8 µM

Molecule: GEGQQHHLGGAKQAGAV [γ^1–17 D16A]
- Kd (ClfA229–545 [2]): 3 µM

Molecule: GEGQQHHLGGAKQAGDV [WT γ^1–17]
- inhibition at 50 µM (ClfA229–545 [3]): ~50%
- Kd (ClfA229–545 [2]): 5.8 µM

Molecule: GST-Fg γ^1–17: recombinant form of residues 395–411 of the Fg γ-chain fused to a GST protein (GEGQQHHLGGAKQAGDV; also: fused to GST, end not given here)
- Kd (ClfA229–545 [4]): 0.657 µM

Molecule: ClfA_(229–545) (clumping factor A, N2N3 domains) (from UniProt Q53653 229-545) (domain or fragment)
- Kd [5]: 0.657 µM
- Kd [6]: 0.222 µM

Molecule: ClfA_((229–545)D327C/K541C), stable closed conformation (from UniProt Q53653 229-545) (domain or fragment)
- Kd [6]: 0.02 µM
- Kd [7]: 0.034 µM

Molecule: HLGGAKQAGAV [Fg γ^1–17 _(D16A) peptide truncated by 6 amino acids at the N-terminus]
- Kd [8]: 22.5 µM

Molecule: GQQHHLGGAKQAGAV [Fg γ^1–17 _(D16A) peptide truncated by 2 amino acids at the N-terminus]
- Kd [8]: 8.8 µM

Molecule: QHHLGGAKQAGAV [Fg γ^5–17 _(D16A) peptide (13 residues)]
- Kd [8]: 10.5 µM

Source: paper PMC2582960, “A Structural Model of the Staphylococcus aureus ClfA–Fibrinogen Interaction Opens New Avenues for the Design of Anti-Staphylococcal Therapeutics” (PLoS Pathogens, 2008)
